The target of the experiment is MtlA (mannitol PTS Enzyme IIC-IIB-IIA) fused to the T25 domain (pKNT25-mtlA) (E. coli, UniProt P00550 1-637). Briefly: cell-based or functional assay.

1 molecule from PMC6872149, “Protein:Protein interactions in the cytoplasmic membrane apparently influencing sugar transport and phosphorylation activities of the e. coli phosphotransferase system” (PLoS ONE, 2019) can be followed below.

Sequence of MtlA (mannitol PTS Enzyme IIC-IIB-IIA) fused to the T25 domain (pKNT25-mtlA) (P00550 whole entry, the tested form may be a part): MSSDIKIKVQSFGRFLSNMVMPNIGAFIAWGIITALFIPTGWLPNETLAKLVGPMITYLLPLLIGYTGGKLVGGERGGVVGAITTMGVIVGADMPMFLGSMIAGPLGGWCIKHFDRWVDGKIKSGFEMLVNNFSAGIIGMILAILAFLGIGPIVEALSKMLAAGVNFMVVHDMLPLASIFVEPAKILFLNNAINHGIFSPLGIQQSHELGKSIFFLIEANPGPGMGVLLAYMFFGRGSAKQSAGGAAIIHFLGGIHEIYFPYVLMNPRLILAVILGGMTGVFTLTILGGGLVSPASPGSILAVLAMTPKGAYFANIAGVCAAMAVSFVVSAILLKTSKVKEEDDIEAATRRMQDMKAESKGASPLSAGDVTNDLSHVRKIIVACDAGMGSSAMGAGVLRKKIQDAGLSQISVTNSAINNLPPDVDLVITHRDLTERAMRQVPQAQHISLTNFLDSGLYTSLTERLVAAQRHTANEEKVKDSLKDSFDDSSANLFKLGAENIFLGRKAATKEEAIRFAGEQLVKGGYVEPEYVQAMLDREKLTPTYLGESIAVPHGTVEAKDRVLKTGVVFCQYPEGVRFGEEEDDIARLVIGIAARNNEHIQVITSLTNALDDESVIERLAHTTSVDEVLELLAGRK

B1: FruB (fructose PTS IIA-FPr) fused to the T18 domain (pUT18-fruB) (natural protein, E. coli, UniProt P69811 1-376, looked up)
chain: MFQLSVQDIHPGEKAGDKEEAIRQVAAALVQAGNVAEGYVNGMLAREQQTSTFLGNGIAIPHGTTDTRDQVLKTGVQVFQFPEGVTWGDGQVAYVAIGIAASSDEHLGLLRQLTHVLSDDSVAEQLKSATTAEELRALLMGEKQSEQLKLDNEMLTLDIVASDLLTLQALNAARLKEAGAVDATFVTKAINEQPLNLGQGIWLSDSAEGNLRSAIAVSRAANAFDVDGETAAMLVSVAMNDDQPIAVLKRLADLLLDNKADRLLKADAATLLALLTSDDAPTDDVLSAEFVVRNEHGLHARPGTMLVNTIKQFNSDITVTNLDGTGKPANGRSLMKVVALGVKKGHRLRFTAQGADAEQALKAIGDAIAAGLGEGA
As for B1, the “PEP-dependent [14C]mannitol phosphorylation in vitro, activity ratio (Enzyme II plus FruB / Enzyme II alone); purified His-FruB 0.23 μM added to crude extract Cr.Ext-ΔfruBKA-pMAL (no FruA)” value was 1.2 ratio; the “PEP-dependent [14C]mannitol phosphorylation in vitro, activity ratio (Enzyme II plus FruB / Enzyme II alone); purified His-FruB 0.23 μM added to membrane pellets MP-WT-pMAL (no fruA overexpression)” value was 1.5 ratio; the “PEP-dependent [14C]mannitol phosphorylation in vitro, activity ratio (Enzyme II plus FruB / Enzyme II alone); purified His-FruB 0.23 μM added to membrane pellets MP-WT-pMAL-fruA (fruA overexpressed)” value turned out to be 8.6 ratio; the “PEP-dependent [14C]mannitol phosphorylation in vitro, activity ratio (Enzyme II plus FruB / Enzyme II alone); purified His-FruB 0.23 μM added to membrane pellets MP-ΔfruBKA-pMAL (no FruA)” value was determined as 1.2 ratio.
